The target in this test is Gal-CBP1-2441 chimera (yeast) (UniProt P45481). Kind of test: cell-based or functional assay.

As for “SRCAP1275-2971 (from UniProt Q6ZRS2 1534-3230)”, the ability of Gal-CBP to activate transcription of pGal-CAT is 2.5 fold.
